Assay results from US20180273635A1 (Zymeworks, published 2018).
Numbering of substitutions follows the chain as printed. In names and notes the source's numbering stands.

B1: Variant 14063 (antibody, human IgG1, kappa)
heavy: EVQLVESGGGLVQPGGSLRLSCAASGFTFQDYTMDWVRQAPGKGLEWVADVNPNSGYSIYNQRFKGRFTLSVDRSKNTLYLQMNSLRAEDTAVYYCARNLGPSFYFDYWGQGTLVTVSSASTKGPSVFPLAPSSKSTSGGTAALGCLVKDYFPEPVTVSWNSGALTSGVHTFPAVLQSSGLYSLSSVVTVPSSSLGTQTYICNVNHKPSNTKVDKKVEPKSCDKTHTCPPCPAPELLGGPSVFLFPPKPKDTLMISRTPEVTCVVVDVSHEDPEVKFNWYVDGVEVHNAKTKPREEQYNSTYRVVSVLTVLHQDWLNGKEYKCKVSNKALPAPIEKTISKAKGQPREPQVYVYPPSRDELTKNQVSLTCLVKGFYPSDIAVEWESNGQPENNYKTTPPVLDSDGSFALVSKLTVDKSRWQQGNVFSCSVMHEALHNHYTQKSLSLSPG
light: not shown
chain: not shown
notes: OA (one-armed) format; clones 8788, 8781, 4372; also called v14063
B2: variant 12478 (antibody, human IgG1, kappa)
heavy: B1 heavy with Q30Y, Y57G
light: not shown
chain: not shown
notes: OA pertuzumab variant, HC T30Y (Kabat); also called v12478
B3: variant 12479 (antibody, human IgG1, kappa)
heavy: B1 heavy with Q30N, Y57G
light: not shown
chain: not shown
notes: OA pertuzumab variant, HC T30N (Kabat); also called v12479
B4: variant 12480 (antibody, human IgG1, kappa)
heavy: B1 heavy with Y57G
light: not shown
chain: not shown
notes: OA pertuzumab variant, HC T30Q (Kabat); also called v12480
B5: variant 12482 (antibody, human IgG1, kappa)
heavy: B1 heavy with Q30F, Y57G
light: not shown
chain: not shown
notes: OA pertuzumab variant, HC T30F (Kabat); also called v12482
B6: variant 12489 (antibody, human IgG1, kappa)
heavy: B1 heavy with Q30T, Y57M
light: not shown
chain: not shown
notes: OA pertuzumab variant, HC G56M (Kabat); also called v12489
B7: variant 12490 (antibody, human IgG1, kappa)
heavy: B1 heavy with Q30T
light: not shown
chain: not shown
notes: OA pertuzumab variant, HC G56Y (Kabat); also called v12490
B8: variant 12491 (antibody, human IgG1, kappa)
heavy: B1 heavy with Q30T, Y57F
light: not shown
chain: not shown
notes: OA pertuzumab variant, HC G56F (Kabat); also called v12491
B9: variant 12497 (antibody, human IgG1, kappa)
heavy: B1 heavy with Q30T, Y57G, Q62R
light: not shown
chain: not shown
notes: OA pertuzumab variant, HC Q61R (Kabat); also called v12497
B10: variant 12502 (antibody, human IgG1, kappa)
heavy: B1 heavy with Q30T, Y57G, S75W
light: not shown
chain: not shown
notes: OA pertuzumab variant, HC S74W (Kabat); also called v12502
B11: variant 12503 (antibody, human IgG1, kappa)
heavy: B1 heavy with Q30T, Y57G, S75H
light: not shown
chain: not shown
notes: OA pertuzumab variant, HC S74H (Kabat); also called v12503
B12: variant 12504 (antibody, human IgG1, kappa)
heavy: B1 heavy with Q30T, Y57G, S75A
light: not shown
chain: not shown
notes: OA pertuzumab variant, HC S74A (Kabat); also called v12504
B13: variant 12505 (antibody, human IgG1, kappa)
heavy: B1 heavy with Q30T, Y57G, K76E
light: not shown
chain: not shown
notes: OA pertuzumab variant, HC K75E (Kabat); also called v12505
B14: variant 9996 (antibody)
heavy: B1 heavy with Q30A, A49G, Y57G, L70F
light: not shown
Fc: not shown
notes: OA format; also called v9996

The binders below were run against T1, Recombinant human HER2 (human, UniProt P04626 23-652) (assay: SPR, 25 C; Ka ratio to WT v10013;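 further: constructs captured via anti-human Fc on CM5 chip, HER2 ECD as analyte in duplicate dilutions, sensorgrams globally fit to 1:1 Langmuir model on Biacore T200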).
T1 construct: extracellular domain; Analyte of the SPR assays; also called HER2 ECD; ECD2 of HER2

| Binder | Ka, mut/Ka, WT [fold] |
| --- | --- |
| B1 | ~124 |

The binders below were run against T1, Recombinant human HER2 (assay: SPR, Biacore T200, 25 C; variant captured on anti-human Fc, HER2 flowed;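 further: HER2 extracellular domain analyte run as duplicate dilutions over amine-coupled anti-Fc on a CM5 chip, rates from global sensorgram fitting with a 1:1 Langmuir model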).

| Binder | Kd [nM] | koff [s⁻¹] | kon [M⁻¹ s⁻¹] |
| --- | --- | --- | --- |
| B1 | ~0.13 | ~8.3e-06 | 63000 |

Each binder was assayed against T2, Recombinant human HER2 (human, UniProt P04626 23-652) (assay: SPR, pre-SEC; ratio to WT v10013;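 further: SPR on Biacore T200 at 25 °C, constructs captured via anti-human Fc on CM5 chip, HER2 ECD as analyte, 1:1 Langmuir global fit, after protein A purification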).
T2 construct: extracellular domain; analyte of the SPR assays; also called HER2 ECD; ECD2 of HER2
Experimental: (§1) The affinity towards HER2 ECD of the samples was measured by SPR on a Biacore T200 as follows. Between 2000 and 4000 RU of anti-human Fc injected at concentration between 5 and 10 μg/ml was immobilized on a CM5 chip using standard amine coupling. Antigen-binding constructs were captured on the anti-human Fc (injected at concentration at 0.51 microg/mL in PBST, 1 min at 10 microl/min) at response levels ranging from 120-270 RU. […] HER2 dilutions were analyzed in duplicates. Sensograms were fit globally to a 1: 1 Langmuir binding model, using the software provided with the Biacore T200. All experiments were conducted at 25° C.
(§2) The affinity of antigen-binding constructs in OA format was determined by SPR following protein A purification. […] Antigen-binding constructs in FSA format were purified by protein A affinity and SEC prior to assessment of affinity by SPR.

| Binder | Ka, mut/Ka, WT |
| --- | --- |
| B2 | 3.5 |
| B3 | 3.9 |
| B4 | 4.6 |
| B5 | 2.5 |
| B6 | 1.4 |
| B7 | 2.5 |
| B8 | 2.1 |
| B9 | 1.4 |
| B10 | 8.2 |
| B11 | 1.3 |
| B12 | 1.1 |
| B13 | 4.2 |

What follows are binders tested against T2, Recombinant human HER2 (assay: SPR, variant captured on anti-human Fc, HER2 flowed, 25 C, post-SEC).
Experimental: as §1, §2

| Binder | Kd [nM] |
| --- | --- |
| B14 | 1.9 |
| B2 | 5.8 |
| B3 | 4.4 |
| B4 | 4.4 |
| B5 | 7.3 |
| B6 | 13 |
| B7 | 7.8 |
| B8 | 10 |
| B9 | 13 |
| B10 | 3.9 |
| B11 | 25 |
| B12 | 27 |
| B13 | 5.7 |

These binders were tested against T2, Recombinant human HER2 (assay: SPR, post-SEC; ratio to WT v10013).
Experimental: as §1, §2

| Binder | Ka, mut/Ka, WT |
| --- | --- |
| B2 | 3.6 |
| B3 | 4.7 |
| B4 | 4.7 |
| B5 | 2.9 |
| B6 | 1.6 |
| B7 | 2.7 |
| B8 | 2.1 |
| B9 | 1.6 |
| B10 | 5.3 |
| B11 | 0.8 |
| B12 | 0.8 |
| B13 | 3.7 |

These binders were tested against T2, Recombinant human HER2 (assay: SPR, variant captured on anti-human Fc, HER2 flowed, 25 C, pre-SEC;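 further: HER2 extracellular domain binding on Biacore T200, CM5 chip with amine-coupled anti-human Fc, duplicate antigen dilutions, global 1:1 Langmuir fit, measured after protein A purification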).

| Binder | Kd [nM] |
| --- | --- |
| B14 | 2 |
| B2 | 5.6 |
| B3 | 5 |
| B4 | 4.2 |
| B5 | 7.7 |
| B6 | 14 |
| B7 | 7.7 |
| B8 | 9.1 |
| B9 | 14 |
| B10 | 2.4 |
| B11 | 15 |
| B12 | 18 |
| B13 | 4.6 |

These binders were tested against T1, Recombinant human HER2 (assay: calculated from the SPR Ka ratio to WT v10013;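 further: SPR at 25 °C with constructs captured on an anti-human Fc chip and HER2 extracellular domain as analyte, kinetics fitted to a 1:1 Langmuir model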).
Experimental: as §1

| Binder | ΔΔG [kcal/mol] |
| --- | --- |
| B1 | -2.9 |
